The text below walks through data of publication PMC9700037, “Inflammasome sensor NLRP1 disease variant M1184V promotes autoproteolysis and DPP9 complex formation by stabilizing the FIIND domain” (The Journal of Biological Chemistry, 2022).

Positions count from the first letter of the chain named. In names and notes the source's numbering stands.

First the molecules themselves.
B1: His6-tev-DPP9 (enzyme, UniProt Q86TI2 1-863, looked up)
chain: MATTGTPTADRGDAAATDDPAARFQVQKHSWDGLRSIIHGSRKYSGLIVNKAPHDFQFVQKTDESGPHSHRLYYLGMPYGSRENSLLYSEIPKKVRKEALLLLSWKQMLDHFQATPHHGVYSREEELLRERKRLGVFGITSYDFHSESGLFLFQASNSLFHCRDGGKNGFMVSPMKPLEIKTQCSGPRMDPKICPADPAFFSFINNSDLWVANIETGEERRLTFCHQGLSNVLDDPKSAGVATFVIQEEFDRFTGYWWCPTASWEGSEGLKTLRILYEEVDESEVEVIHVPSPALEERKTDSYRYPRTGSKNPKIALKLAEFQTDSQGKIVSTQEKELVQPFSSLFPKVEYIARAGWTRDGKYAWAMFLDRPQQWLQLVLLPPALFIPSTENEEQRLASARAVPRNVQPYVVYEEVTNVWINVHDIFYPFPQSEGEDELCFLRANECKTGFCHLYKVTAVLKSQGYDWSEPFSPGEDEFKCPIKEEIALTSGEWEVLARHGSKIWVNEETKLVYFQGTKDTPLEHHLYVVSYEAAGEIVRLTTPGFSHSCSMSQNFDMFVSHYSSVSTPPCVHVYKLSGPDDDPLHKQPRFWASMMEAASCPPDYVPPEIFHFHTRSDVRLYGMIYKPHALQPGKKHPTVLFVYGGPQVQLVNNSFKGIKYLRLNTLASLGYAVVVIDGRGSCQRGLRFEGALKNQMGQVEIEDQVEGLQFVAEKYGFIDLSRVAIHGWSYGGFLSLMGLIHKPQVFKVAIAGAPVTVWMAYDTGYTERYMDVPENNQHGYEAGSVALHVEKLPNEPNRLLILHGFLDENVHFFHTNFLVSQLIRAGKPYQLQIYPNERHSIRCPESGEHYEVTLLHFLQEYL
notes: dipeptidyl peptidase 9 (DPP9); Dimer by SEC-MALS (192 kDa); also called His6-DPP9; source: Sf9 insect cells, purified; also co-expressed with GST-tev-FIIND constructs in Sf9 and co-purified
B2: NLRP1-FIIND (wt) (domain or fragment, human, UniProt Q9C000 1064-1376, looked up)
chain: SQGDLHTKPLGTDDDFWGPTGPVATEVVDKEKNLYRVHFPVAGSYRWPNTGLCFVMREAVTVEIEFCVWDQFLGEINPQHSWMVAGPLLDIKAEPGAVEAVHLPHFVALQGGHVDTSLFQMAHFKEEGMLLEKPARVELHHIVLENPSFSPLGVLLKMIHNALRFIPVTSVVLLYHRVHPEEVTFHLYLIPSDCSIRKAIDDLEMKFQFVRIHKPPPLTPLYMGCRYTVSGSGSGMLEILPKELELCYRSPGEDQLFSEFYVGHLGSGIRLQVKDKKDETLVWEALVKPGDLMPATTLIPPARIAVPSPLDAP
notes: NLRP1 FIIND domain (ZU5-UPA), human, residues 1064-1376 of isoform 1; GST is still on the protein during the GST pull-down of the co-expression experiments and is cut off by TEV before SEC, SEC-MALS and SPR; also called wt FIIND protein; NLRP1 FIIND domain; source: also co-expressed with His6-DPP9 and SUMO-UPA in Sf9; not shown: GST, N-terminal, cleaved
B3: NLRP1-FIIND (P1214R) (domain or fragment, human, UniProt Q9C000 1064-1376, looked up)
chain: B2 chain with P151R
notes: NLRP1 FIIND domain, human, residues 1064-1376 of isoform 1, patient mutation P1214R; not shown: GST, N-terminal, cleaved
B4: NLRP1-FIIND (M1184V S1213A) (domain or fragment, human, UniProt Q9C000 1064-1376, looked up)
chain: B2 chain with M121V, S150A
notes: NLRP1 FIIND domain, human, residues 1064-1376 of isoform 1, M1184V and S1213A; Uncleaved single chain; GST kept during the GST pull-down of the co-expression, cut off by TEV afterwards; also called cleavage-deficient FIIND mutant (M1184V–S1213A); source: also co-expressed with His6-DPP9 in Sf9; not shown: GST, N-terminal, cleaved
B5: NLRP1-FIIND (S1213A) (domain or fragment, human, UniProt Q9C000 1064-1376, looked up)
chain: B2 chain with S150A
notes: NLRP1 FIIND domain, human, residues 1064-1376 of isoform 1, S1213A (no autoproteolysis); Uncleaved single chain; also called autoproteolysis-deficient NLRP1-FIIND; not shown: GST, N-terminal, cleaved
B6: NLRP1-FIIND (M1184V–P1214R) (domain or fragment, human, UniProt Q9C000 1064-1376, looked up)
chain: B2 chain with M121V, P151R
notes: NLRP1 FIIND domain, human, residues 1064-1376 of isoform 1, M1184V and P1214R; they were combined here by mutagenesis; also called M1184V–P1214R double mutation; not shown: GST, N-terminal, cleaved
B7: NLRP1-FIIND (M1184V) (domain or fragment, human, UniProt Q9C000 1064-1376, looked up)
chain: B2 chain with M121V
notes: NLRP1 FIIND domain (ZU5-UPA), human, residues 1064-1376 of isoform 1, natural variant M1184V; Mostly autocleaved between F1212 and S1213, the fragments stay together; GST is still on the protein during the GST pull-down of the co-expression experiments and is cut off by TEV before SEC, SEC-MALS and SPR; also called M1184V variant FIIND; source: also co-expressed with His6-DPP9 with or without …
B8: N-terminal cleavage fragment (ZU5) of NLRP1-FIIND wt (domain or fragment, human, UniProt Q9C000 1064-1212, looked up)
chain: SQGDLHTKPLGTDDDFWGPTGPVATEVVDKEKNLYRVHFPVAGSYRWPNTGLCFVMREAVTVEIEFCVWDQFLGEINPQHSWMVAGPLLDIKAEPGAVEAVHLPHFVALQGGHVDTSLFQMAHFKEEGMLLEKPARVELHHIVLENPSF
notes: NLRP1, human, isoform 1; from the start of the FIIND construct (1064) to the autolytic cleavage site (peptide bond F1212-S1213); source: Sf9 insect cells, purified; arises by autoproteolysis of the FIIND construct; not shown: GST, N-terminal, cleaved
B9: N-terminal cleavage fragment (ZU5) of NLRP1-FIIND M1184V (domain or fragment, human, UniProt Q9C000 1064-1212, looked up)
chain: B8 chain with M121V
notes: NLRP1, human, isoform 1, natural variant M1184V; from the start of the FIIND construct (1064) to the autolytic cleavage site (peptide bond F1212-S1213); source: Sf9 insect cells, purified; arises by autoproteolysis of the FIIND construct; not shown: GST, N-terminal, cleaved

In data set [1] the target is B7. In words: SEC-MALS; co-eluting SEC fractions of FIIND, DPP9 and free UPA co-expressed in Sf9 and co-purified; 0.5-1.0 mg/ml, Superose 6 increase (10/300) GL, buffer A without glycerol. The note with it: partners not purified. For orientation: SEC sorts molecules by how far they enter the pores of the column.
For data set [2], the target named is T1, biotin-MBP-NLRP1 M1184V (Avi-MBP-tev-NLRP1 M1184V) (human, UniProt Q9C000 1-1473, M1184V, biotin (on the Avi tag, BirA co-expressed)).
T1 construct: NLRP1, human, isoform 1, residues 1-1473, natural variant M1184V; also called M1184VSf9; source: Sf9 insect cells, co-expressed with BirA, purified (multimer or void SEC fraction); not shown: Avi, N-terminal, kept; MBP, N-terminal, kept
T1 sequence (looked up): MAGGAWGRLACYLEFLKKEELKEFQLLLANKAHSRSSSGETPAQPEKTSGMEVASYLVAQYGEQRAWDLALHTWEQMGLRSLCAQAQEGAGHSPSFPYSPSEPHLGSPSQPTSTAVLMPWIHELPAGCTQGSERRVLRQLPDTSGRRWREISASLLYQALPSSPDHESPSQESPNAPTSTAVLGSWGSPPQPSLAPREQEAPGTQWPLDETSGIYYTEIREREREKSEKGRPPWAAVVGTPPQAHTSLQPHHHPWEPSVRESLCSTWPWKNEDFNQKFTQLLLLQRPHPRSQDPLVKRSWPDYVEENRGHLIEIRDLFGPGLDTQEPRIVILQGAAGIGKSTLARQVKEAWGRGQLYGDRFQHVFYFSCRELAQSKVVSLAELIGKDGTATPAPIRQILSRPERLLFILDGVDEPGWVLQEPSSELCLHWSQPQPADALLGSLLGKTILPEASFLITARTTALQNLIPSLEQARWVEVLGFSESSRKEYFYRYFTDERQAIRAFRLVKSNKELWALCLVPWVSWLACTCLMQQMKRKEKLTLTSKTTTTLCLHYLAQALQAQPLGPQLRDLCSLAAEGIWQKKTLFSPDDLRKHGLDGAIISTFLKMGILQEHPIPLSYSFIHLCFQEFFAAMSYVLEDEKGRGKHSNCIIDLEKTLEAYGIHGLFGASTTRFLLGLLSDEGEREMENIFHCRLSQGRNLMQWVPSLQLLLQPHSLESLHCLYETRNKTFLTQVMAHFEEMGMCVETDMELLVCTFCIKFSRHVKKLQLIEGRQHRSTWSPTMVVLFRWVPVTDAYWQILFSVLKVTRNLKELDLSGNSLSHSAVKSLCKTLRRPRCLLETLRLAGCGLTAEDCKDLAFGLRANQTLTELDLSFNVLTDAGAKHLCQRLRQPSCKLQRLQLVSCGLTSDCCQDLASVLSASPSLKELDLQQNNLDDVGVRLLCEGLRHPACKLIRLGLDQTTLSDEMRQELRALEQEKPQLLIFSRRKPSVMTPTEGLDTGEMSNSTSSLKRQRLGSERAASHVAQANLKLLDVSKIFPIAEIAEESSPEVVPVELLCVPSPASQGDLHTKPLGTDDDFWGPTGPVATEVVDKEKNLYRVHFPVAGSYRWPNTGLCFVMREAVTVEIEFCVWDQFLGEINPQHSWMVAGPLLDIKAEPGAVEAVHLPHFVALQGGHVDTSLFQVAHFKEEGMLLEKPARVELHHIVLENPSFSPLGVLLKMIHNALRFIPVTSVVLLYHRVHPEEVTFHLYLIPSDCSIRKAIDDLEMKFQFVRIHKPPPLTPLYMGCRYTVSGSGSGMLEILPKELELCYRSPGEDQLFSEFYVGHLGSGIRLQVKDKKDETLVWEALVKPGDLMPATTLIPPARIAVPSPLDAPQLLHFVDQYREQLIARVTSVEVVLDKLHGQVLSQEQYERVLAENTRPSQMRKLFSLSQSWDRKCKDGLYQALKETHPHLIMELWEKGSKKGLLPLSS
Put plainly: SPR; Biotin-FLAG-NLRP1 (from HEK293T) or biotin-MBP-NLRP1 (from Sf9, multimer fraction) or biotin-MBP immobilised on a streptavidin chip; DPP9 injected at 78-2500 nM, single-cycle kinetics, 10 mM Hepes pH 7.5, 150 mM NaCl, 0.5 mM TCEP, 0.05% Tween-20. As to conditions: both partners purified. (Surface plasmon resonance follows binding to a sensor surface in real time, without labels.)

For data set [3], the target named is T2, Biotin-FLAG-NLRP1 M1184V (human, UniProt Q9C000 1-1473, M1184V, biotin).
T2 construct: NLRP1 full length, natural variant M1184V; the construct for purification from HEK293T and its biotinylation are not described in the methods; also called M1184VHEK; source: HEK293T cells, purified
T2 sequence (looked up): T1 sequence (looked up)
The data set is described as above. The note with it: both partners purified.

Data set [4] deals with the molecule itself. Put plainly: SEC; purified FIIND proteins after removal of GST by TEV, Superose 6 increase (10/300) GL, 0.5 ml/min; fractions checked by SDS-PAGE.
For data set [5], the target named is T3, Intracellularly biotinylated Avi-His6-tev-DPP9 (UniProt Q86TI2 1-863, biotin (on the Avi tag)).
T3 construct: dipeptidyl peptidase 9 (DPP9); also called biotin-DPP9; immobilized DPP9; source: Sf9 insect cells, intracellularly biotinylated, purified; not shown: Avi, N-terminal, kept; His6, N-terminal, kept
In words: SPR; biotinylated Avi-His6-tev-DPP9 immobilised on a Series S SA chip (Biacore 8K); monomeric fraction of FIIND proteins (or GST) injected, single-cycle kinetics, 78.125-5000 nM (S1213A from 39.06 nM), 10 mM Hepes pH 7.5, 150 mM NaCl, 0.5 mM TCEP, 0.05% Tween-20. The note with it: both partners purified.

Data set [6] deals with T3, Intracellularly biotinylated …. In words: SPR; as a3, with 100 μM Val-boroPro (VbP) present in all dilutions of the FIIND domain. As to conditions: both partners purified.
Data set [7] has as its target T4, C-terminal cleavage fragment (UPA) of NLRP1-FIIND (human, UniProt Q9C000 1213-1376).
T4 construct: NLRP1, human, isoform 1; from the autolytic cleavage site (S1213) to the end of the FIIND construct (1376); source: Sf9 insect cells, purified; arises by autoproteolysis of the FIIND construct
T4 sequence (looked up): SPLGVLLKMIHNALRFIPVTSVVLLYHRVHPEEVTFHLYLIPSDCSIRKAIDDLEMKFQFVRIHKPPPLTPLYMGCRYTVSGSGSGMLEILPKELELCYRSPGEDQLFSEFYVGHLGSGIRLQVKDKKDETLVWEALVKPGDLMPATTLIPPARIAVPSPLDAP
In words: SEC; purified FIIND proteins after removal of GST by TEV, Superose 6 increase (10/300) GL, 0.5 ml/min; fractions checked by SDS-PAGE. The note with it: both partners purified.

In the case of B1, the stoichiometry N (in general, the number of molecules, sites or subunits per partner or assembly) in data set [1] was found to be 2 DPP9 chains per FIIND. For the same molecule, the figures for the Kd in data set [2] and in data set [3] were 149 nM and 144 nM, respectively.
In the case of B2, in data set [4], the binding result is given as “binds”. The Kd (in general, the constant that tells how readily two partners part at equilibrium) in data set [5] is 1900 nM.
For B3, binding in data set [5] was characterised by a dissociation constant (Kd) of 3430 nM.
On to B4, for which the Kd in data set [5] came to 2900 nM.
Take B5: in data set [4], the binding result is reported as “binds”. Besides, in data set [5], binding was characterised by a dissociation constant (Kd) of 1550 nM.
With B6, in data set [5], the dissociation constant (Kd) is 4500 nM.
In the case of B7, the figures for the Kd in data set [6] and in data set [5] were 3650 nM and 3500 nM, respectively.
Consider B8, for which the binding result in data set [7] is “binds”.
In the case of B9, in data set [7], the binding result is listed as “binds”.
